In publication PMC8154523:

What was measured:
Test in all cases: NMR
Conditions in all cases: 30 °C
Asp32 (position 32, […]) = system: Asp32 (position 32, […])
Asp46 (position 46, […]) = system: Asp46 (position 46, […])
Asp77 (position 77, […]) = system: Asp77 (position 77, […])
Glu28 (position 28, […]) = system: Glu28 (position 28, […])
Glu43 (position 43, […]) = system: Glu43 (position 43, […])
Glu73 (position 73, […]) = system: Glu73 (position 73, […])
[1] = 50 mM NaCl (plus 20 mM phosphate and 5 mM polyanionic sclx8), D-fructose-bound RSL in the presence of 5 mM sclx8 (binding has mM affinity and is pH dependent)
[2] = 50 mM NaCl (plus 20 mM phosphate), D-fructose-bound RSL, no sclx8 (0 mM)

Question: “Ralstonia solanacearum lectin (RSL), fucose-binding lectin (Ralstonia solanacearum)” was tested. Which pKa (Asp32 (position 32, […]); [1]) did it give?
Answer: 3.7±0.01

Question: What about the pKa (Asp32 (position 32, […]); [2]) of the same substance?
Answer: 1.7±0.02

Question: What about the pKa (Asp46 (position 46, […]); [1]) of the same substance?
Answer: 4.2±0.01

Question: What about the pKa (Asp46 (position 46, […]); [2]) of the same substance?
Answer: 3.5±0.01

Question: And the pKa (Asp77 (position 77, […]); [1])?
Answer: < 2.0

Question: What about the pKa (Asp77 (position 77, […]); [2]) of the same substance?
Answer: < 2.0

Question: What about the pKa (Glu28 (position 28, […]); [1]) of the same substance?
Answer: < 2.0

Question: What about the pKa (Glu28 (position 28, […]); [2]) of the same substance?
Answer: < 2.0

Question: And the pKa (Glu43 (position 43, […]); [1])?
Answer: 6.2±0.01

Question: What about the pKa (Glu43 (position 43, […]); [2]) of the same substance?
Answer: 5.9±0.01

Question: What about the pKa (Glu73 (position 73, […]); [1]) of the same substance?
Answer: < 2.0

Question: And the pKa (Glu73 (position 73, […]); [2])?
Answer: < 2.0
